We go through one molecule from patent US20230183346A1 (INSERM INSTITUT NATIONAL DE LA SANTE ET DE LA RECHERCHE …, published 2023).

This assay addresses T1, human BTLA (B and T lymphocyte attenuator), BTLA isoform 1 precursor (Homo sapiens) (human, UniProt Q7Z6A9 31-289).
T1 construct: BTLA was presented on CD3+ T cells of PBMC, on COS cells transfected with human BTLA in p3xFlag-myc-CMV25 (this construct may carry tags; not described), and on L-BTLA fibroblasts stably transfected with human BTLA; also called CD272
In words: flow cytometry on CD3+ T cells among PBMC, 0.01-10 ug/ml. As to the method:
T cells (CD3+) among PBMC were stained for BTLA with the anti BTLA mAbs at various concentration (from 0.01 μg/ml to 10μ,g/ml). […] Then COS transfected with human BTLA were incubated with the anti BTLA mAbs and then with HVEM-Fc before staining with an anti human IgG Fc PE. The percentage of inhibition was determined as 100-maximum of percentage of stained cells. […] The median fluorescence intensity of cells was determined. […] On the other hand, 7.1 and 8.2 antibodies were not able to compete against 4C7 mAb at a high dose (FIG. 3). […] Finally, γδT were obtained after a positive sorting of fresh purified PBMC and stained for Cell Trace Violet to follow the proliferation. Cells were incubated 5 days in IL2/Zometa with the different mAbs prior to analysis by flow cytometry. The addition of antibodies in the culture of the γδT lead to an upregulation of their proliferation. Cells incubated with the HVEM 18.10 mAb disclosed in WO2014184360 is able to proliferate more than cells incubated with the mock control (IgG1) (FIG. 4).
On the technique in general: Flow cytometry measures light scatter and fluorescence of single cells or particles in a stream.

B1: 629.3 mAb (antibody, V domains shown)
VH: QVQLRESGPGLVAPSQSLSITCTVSGFSLNTYGVSWVRQPPGKGLEWLGVVWGDGNTNYHSVVISRLTINKDNSKSQVFLKLNSLQTDDTATYYCAKCYGSRFDYAMDYWGQGTSVTVSS
VL: DIVMSQSPSSLAVSIGEQVTMSCKSSQSLLSSRTRKNYLAWYQQRPGQSPKLLIYWASTRESGVPDRFTGSGSGTDFTLTISSVQAEDLAVYYCKQSYNLPTFGGGTRLEIK
notes: Mouse monoclonal antibody, detected with anti-mouse IgG
With B1, the binding result is “binds”.
